# Read-outs that look alike come from different tables or passages of the source.
# T1: 229E Spike protein (HCoV-229E, UniProt P15423 16-1115)
# T1 sequence: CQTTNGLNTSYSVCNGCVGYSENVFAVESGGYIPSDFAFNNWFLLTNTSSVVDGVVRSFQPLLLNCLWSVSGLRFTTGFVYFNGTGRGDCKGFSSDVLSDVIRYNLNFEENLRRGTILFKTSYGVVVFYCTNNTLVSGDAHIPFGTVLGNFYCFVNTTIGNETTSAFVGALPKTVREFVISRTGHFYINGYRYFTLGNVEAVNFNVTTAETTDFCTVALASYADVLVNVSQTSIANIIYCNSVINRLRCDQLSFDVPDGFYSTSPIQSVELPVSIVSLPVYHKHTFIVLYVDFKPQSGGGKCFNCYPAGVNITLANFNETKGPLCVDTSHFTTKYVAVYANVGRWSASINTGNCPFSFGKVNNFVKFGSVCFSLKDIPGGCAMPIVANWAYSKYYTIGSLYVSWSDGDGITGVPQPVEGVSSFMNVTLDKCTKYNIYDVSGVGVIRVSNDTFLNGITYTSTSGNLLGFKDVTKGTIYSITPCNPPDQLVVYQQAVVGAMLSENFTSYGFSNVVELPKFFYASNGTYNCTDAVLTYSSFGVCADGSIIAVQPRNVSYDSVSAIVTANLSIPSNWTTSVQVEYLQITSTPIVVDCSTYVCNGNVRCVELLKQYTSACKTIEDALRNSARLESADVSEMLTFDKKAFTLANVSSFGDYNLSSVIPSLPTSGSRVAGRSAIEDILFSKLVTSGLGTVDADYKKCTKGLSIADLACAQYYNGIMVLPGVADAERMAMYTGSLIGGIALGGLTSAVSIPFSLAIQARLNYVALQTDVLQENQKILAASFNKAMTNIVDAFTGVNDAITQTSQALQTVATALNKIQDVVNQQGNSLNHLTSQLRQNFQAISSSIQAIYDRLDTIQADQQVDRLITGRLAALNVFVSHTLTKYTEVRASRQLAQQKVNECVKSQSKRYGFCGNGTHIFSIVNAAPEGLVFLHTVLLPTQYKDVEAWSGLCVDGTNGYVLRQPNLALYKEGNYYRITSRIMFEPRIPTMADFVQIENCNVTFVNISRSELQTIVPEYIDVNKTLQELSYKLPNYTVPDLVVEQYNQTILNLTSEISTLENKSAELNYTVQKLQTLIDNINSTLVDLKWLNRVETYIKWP
# T2: NL63 Spike protein (HCoV-NL63, UniProt Q6Q1S2 19-1296)
# T2 sequence: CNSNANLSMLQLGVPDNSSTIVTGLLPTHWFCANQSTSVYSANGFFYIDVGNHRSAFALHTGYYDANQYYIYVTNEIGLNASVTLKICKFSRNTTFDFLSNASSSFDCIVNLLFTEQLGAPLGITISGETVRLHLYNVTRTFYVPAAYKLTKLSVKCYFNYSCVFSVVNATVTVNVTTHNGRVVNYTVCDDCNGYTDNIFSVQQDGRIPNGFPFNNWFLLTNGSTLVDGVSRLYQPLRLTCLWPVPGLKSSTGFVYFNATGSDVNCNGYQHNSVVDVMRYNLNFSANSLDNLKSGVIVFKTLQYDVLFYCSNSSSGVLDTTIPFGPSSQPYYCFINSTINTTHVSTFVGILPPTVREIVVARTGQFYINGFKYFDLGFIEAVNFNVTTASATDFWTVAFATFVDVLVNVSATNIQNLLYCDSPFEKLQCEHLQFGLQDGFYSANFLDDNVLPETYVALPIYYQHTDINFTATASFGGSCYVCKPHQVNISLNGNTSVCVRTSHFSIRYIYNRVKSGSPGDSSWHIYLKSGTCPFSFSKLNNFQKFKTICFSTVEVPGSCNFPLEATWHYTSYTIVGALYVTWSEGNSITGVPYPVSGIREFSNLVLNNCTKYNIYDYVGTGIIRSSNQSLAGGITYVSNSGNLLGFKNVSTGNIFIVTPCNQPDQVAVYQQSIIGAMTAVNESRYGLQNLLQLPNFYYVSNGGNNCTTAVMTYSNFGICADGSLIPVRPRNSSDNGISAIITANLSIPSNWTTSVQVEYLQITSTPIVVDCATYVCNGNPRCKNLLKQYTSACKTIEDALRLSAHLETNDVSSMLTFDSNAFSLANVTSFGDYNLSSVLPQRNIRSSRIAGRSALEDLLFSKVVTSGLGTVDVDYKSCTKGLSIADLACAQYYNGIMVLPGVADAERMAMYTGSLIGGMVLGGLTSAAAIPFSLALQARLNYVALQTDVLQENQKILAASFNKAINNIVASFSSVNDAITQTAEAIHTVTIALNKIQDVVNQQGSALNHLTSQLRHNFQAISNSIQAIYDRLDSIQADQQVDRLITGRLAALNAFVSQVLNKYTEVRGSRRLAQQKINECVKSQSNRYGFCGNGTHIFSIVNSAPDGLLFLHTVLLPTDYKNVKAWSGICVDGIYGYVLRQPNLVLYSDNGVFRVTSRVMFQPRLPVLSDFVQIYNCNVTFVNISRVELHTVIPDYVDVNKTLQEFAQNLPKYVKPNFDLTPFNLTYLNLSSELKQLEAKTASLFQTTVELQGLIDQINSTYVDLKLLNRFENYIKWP
# B1: CC40.8 (antibody, V domains shown)
# VH: EVQLLESGGGLVQPGGSLRLSCAASGFTFSSYVMTWARQAPGKGLEWVSAISGTGYTYYADSVKGRFTVSRDNSKNTLFLQMSSLRAEDTAVYYCAITMAPVVWGQGTTVTVSS
# VL: SYELTQPPSVSVSPGQTARITCSGDALPKRYAYWYQQKSGQAPILVIYEDKKRPSGIPERLSGSKSGTVATLTISGAQVEDEADYYCYSTDSSGNHAVFGGGTQLTVL
# B2: S2P6 (antibody, V domains shown)
# VH: EVQLVQSGAEVKKPGASVKVSCKASGYTFTSQYMHWVRQAPGQGLEWIGIINPSGVHTSYAQKFQGRVTLTRDTSTSTLYMELSSLRSEDTAVYYCARGSPKGAFDYWGQGTLVTVSS
# VL: not shown
# B3: CV3-25 (antibody, V domains shown)
# VH: QVQLVESGAEVKKPGESLKISCKGSGYTFTRYWIGWVRQMPGKGLEWMGIIYPGDSDTRYSPSFQGHVTISADKSISTAYLQWNSLKASDTAMYYCARLPQYCSNGVCQRWFDPWGQGTLVTVSS
# VL: EIVLTQSPSSVSASVGDRVTITCRASQGISSWLAWYQQKPGKAPKLLIYAASSLQSGVPSRFSGSGSGTDFTLTISSLQPEDFATYYCQQGNSFPYTFGQGTNLEIK
# B4: 1249A8 (antibody, V domains shown)
# VH: QVQLVQSGAEVKKPGASMKVSCKASGFTFTDYYMHWVRQAPRQGLEWMGLINPSGSGTAYAQNFQGRVTLARDTSTSTLYMEMGSLTSDDTAVYYCARMDSSGSYDHWGQGTLVTVSS
# VL: ETTLTQSPGTLSLSPGDRATLSCRASQTIRISYLAWYQQKPGQAPRLLVYGPSIRATGIPDRFSARGSGTDFTLTISRLEPEDFAVYYCQHYGSSPPRYTFGQGTKLEIK
# Columns and labels:
# SARS-CoV-2 Spike protein [1] = biological target: SARS-CoV-2 Spike protein (SARS-CoV-2, UniProt P0DTC2 16-1211); assay: SPR, hmAb captured, SARS-CoV-2 Spike injected, 1:1 fit
# SARS-CoV-2 Spike protein [2] = biological target: T3, SARS-CoV-2 Spike protein (SARS-CoV-2, UniProt P0DTC2 16-1211); assay: BLI, mAb on anti-human Fc biosensor, SARS-CoV-2 Spike in solution
# SARS-CoV-2 Spike protein [3] = biological target: T3, SARS-CoV-2 Spike protein
# [4] = biological target: T4, SARS-CoV-2 Omicron Spike protein (SARS-CoV-2 Omicron, UniProt P0DTC2 16-1213)
# [5] = biological target: T4, SARS-CoV-2 Omicron Spike protein; assay: BLI, mAb on anti-human Fc biosensors
# SARS-CoV-2 Spike protein [6] = biological target: T3, SARS-CoV-2 Spike protein; assay: SPR/BLI, method not told apart
# 229E Spike protein = biological target: T1, 229E Spike protein; assay: ELISA titration of 1249A8 on coated Spike proteins, mean Abs at 450 nm
# NL63 Spike protein = biological target: T2, NL63 Spike protein; assay: as above
binder,measurement,setting,value
B1,Kd,SARS-CoV-2 Spike protein [1],1.6 nM
B2,Kd,SARS-CoV-2 Spike protein [1],9.7 nM
B3,Kd,SARS-CoV-2 Spike protein [1],2.5 nM
B4,Kd,SARS-CoV-2 Spike protein [2],2.85 nM
same,Kd,SARS-CoV-2 Spike protein [3],1.22 nM
same,Kd,[4],0.517 nM
same,Kd,[5],0.52 nM
same,Kd,SARS-CoV-2 Spike protein [6],1.8 nM
same,binding result,229E Spike protein,no binding (tested: about 1000 ng/ml)
same,binding result,NL63 Spike protein,no binding (tested: about 1000 ng/ml)
